Results from patent publication US20170275357A1 (Bristol-Myers Squibb, published 2017).
Where two headings read alike, the source gives them in different places.

T1: human IL-17F homodimer (human, UniProt Q96PD4 31-163)
T1 sequence: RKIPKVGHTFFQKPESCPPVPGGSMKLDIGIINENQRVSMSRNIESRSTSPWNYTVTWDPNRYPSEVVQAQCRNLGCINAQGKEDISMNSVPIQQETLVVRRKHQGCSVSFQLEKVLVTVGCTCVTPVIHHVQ


Assays:
[1] = biological target: human IL-23Rα/human IL-12Rβ1 on BaF3 transfectants (human, UniProt Q5VWK5 24-629; P42701 24-662); assay: cell-based or functional assay
human IL-17A homodimer [2] = biological target: T2, human IL-17A homodimer (human, UniProt Q16552 24-155); assay: cell-based or functional assay
[3] = biological target: T3, human IL-17A/F heterodimer (human, UniProt Q16552 24-155; Q96PD4 31-163); assay: cell-based or functional assay
human IL-17F homodimer [4] = biological target: T1, human IL-17F homodimer; assay: cell-based or functional assay
human IL-17A homodimer [5] = biological target: T2, human IL-17A homodimer; assay: cell-based or functional assay; remark: listed apart in the source
[6] = biological target: T3, human IL-17A/F heterodimer; assay: cell-based or functional assay; remark: listed apart in the source
human IL-17F homodimer [7] = biological target: T1, human IL-17F homodimer; assay: cell-based or functional assay; remark: listed apart in the source
human IL-17A homodimer [8] = biological target: T2, human IL-17A homodimer; assay: SPR Biacore T100, captured antibody, bivalent analyte model
Procedure: (§1) Binding kinetics and affinity studies were performed on a BIACORE® T100 system (GE Healthcare, Piscataway, N.J.). Methods for the BIACORE® T100 were programmed using BIACORE® T100 Control Software, v 2.0. For these experiments, the humanized anti-human IL-17A/F antibodies were captured onto a CM4 sensor chip via either goat anti-human IgG Fc-gamma antibody (Jackson ImmunoResearch, West Grove, Pa.) or goat anti-mouse IgG Fc-gamma antibody (Jackson ImmunoResearch). Binding experiments with the IL-17 molecules were performed at 25° C. in a buffer of 10 mM HEPES, 150 mM NaCl, 3 mM EDTA, 0.05% Surfactant P20 (GE Healthcare), 1 mg/mL bovine serum albumin, pH 7.4.
(§2) The capture antibody, goat anti-human IgG Fc-gamma, was diluted to concentration of 20 μg/mL in 10 mM sodium acetate pH 5.0, and then covalently immobilized to all four flow cells of a CM4 sensor chip using amine coupling chemistry (EDC:NHS). […] A capture antibody density of approximately 5000 RU was obtained. The humanized anti-human IL-17A/F antibodies were captured onto flow cell 2, 3, or 4 of the CM4 chip at a density ranging from 60-150 RU. Capture of the test antibodies to the immobilized surface was performed at a flow rate of 10 μL/min. The BIACORE® instrument measures the mass of protein bound to the sensor chip surface, and thus, capture of the test antibody was verified for each cycle. […] The serial dilutions were injected over the surface and allowed to specifically bind to the test antibody captured on the sensor chip. Duplicate injections of each antigen concentration were performed with an association time of 7 minutes and dissociation time of 15 minutes. Kinetic binding studies were performed with a flow rate of 50 μL/min. In between cycles, the flow cell was washed with 20 mM hydrochloric acid to regenerate the surface. This wash step removed both the captured test antibody and any bound antigen from the immobilized antibody surface. The test antibody was subsequently captured again in the next cycle.
(§3) Data was compiled using the BIACORE® T100 Evaluation software (version 2.0).

[9] = biological target: T3, human IL-17A/F heterodimer; assay: as above
Procedure: as §1, §2, §3

human IL-17F homodimer [10] = biological target: T1, human IL-17F homodimer; assay: as above
Procedure: as §1, §2, §3

Chain of human IL-23Rα/human IL-12Rβ1 on BaF3 transfectants (Q5VWK5 24-629, chain 1 of 2, other chains not shown): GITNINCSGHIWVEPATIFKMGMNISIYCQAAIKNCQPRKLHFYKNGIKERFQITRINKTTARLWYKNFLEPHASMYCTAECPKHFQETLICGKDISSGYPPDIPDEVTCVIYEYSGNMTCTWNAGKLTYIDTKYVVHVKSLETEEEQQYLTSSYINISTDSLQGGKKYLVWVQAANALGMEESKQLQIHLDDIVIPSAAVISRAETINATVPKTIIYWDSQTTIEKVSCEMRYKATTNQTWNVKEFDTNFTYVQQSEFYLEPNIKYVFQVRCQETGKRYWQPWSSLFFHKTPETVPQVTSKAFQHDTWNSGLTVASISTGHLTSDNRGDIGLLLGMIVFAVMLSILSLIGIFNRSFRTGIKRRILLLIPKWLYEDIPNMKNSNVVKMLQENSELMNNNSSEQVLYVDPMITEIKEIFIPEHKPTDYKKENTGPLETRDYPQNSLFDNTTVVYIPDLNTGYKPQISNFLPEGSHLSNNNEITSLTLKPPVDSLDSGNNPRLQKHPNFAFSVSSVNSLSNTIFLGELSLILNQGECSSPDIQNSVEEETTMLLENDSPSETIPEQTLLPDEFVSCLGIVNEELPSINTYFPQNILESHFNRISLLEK

Row | IC50, NIH/3T3/KZ170 NF-kB luciferase reporter (human IL-17A homodimer [5]) [nM] | IC50, NIH/3T3/KZ170 NF-kB luciferase reporter [6] [nM] | IC50, NIH/3T3/KZ170 NF-kB luciferase reporter (human IL-17F homodimer [7]) [nM] | Binder | other results
1 | 1.5 | 0.83 | 0.83 | 339-104 (antibody, human IgG1, V domains shown) VH: QVQLVQSGAEVKKPGASVKVSCKASGYTFNEYTMHWVKQSHGQRLEWMGGINPNSGGVSYNQNFKGKATLTVDTSSSTAYMELSSLRSEDTAVFYCARGGDGYYTNYFDIDYWGQGTTVTVSS VL: DIQMTQSPSSLSASVGDRVTITCSASSSVNYMHWYQQKPGKVPKLLIYDTSKLASGVPSRFSGSGSGTDFTLTISSLQPEDVATYYCQQWNSHPLTFGQGTKLEIK | –
2 | 16 | 0.37 | 0.2 | 339-71 (antibody, human IgG1, V domains shown) VH: QVQLVQSGAEVKKPGASVKVSCKASGYTFTEYTMHWVRQAPGQRLEWMGGINPNSGGVSYNQNFKGKATLTVDTSASTAYMELSSLRSEDTAVYYCARGGDGYYTNYFDIDYWGQGTTVTVSS VL: EIVLTQSPDFQSVTPKEKVTITCSASSSVNYMHWYQQKPDQSPKLLIKDTSKLASGVPSRFSGSGSGTDFTLTINSLEAEDAATYYCQQWNSHPLTFGQGTKLEIK | –
3 | > 600 | 23 | 2.6 | 339-105 (antibody, human IgG1, V domains shown) VH: QVQLVQSGAEVKKPGASVKVSCKASGYTFTEYTMHWVRQAPGQRLEWMGGINPNSGGVSYNQNFKGRVTITRDTSSSTAYMELSSLRSEDTAVFYCARGGDGYYTNYFDIDYWGQGTTVTVSS VL: DIQMTQSPSSLSASVGDRVTITCSASSSVNYMHWYQQKPGKVPKLLIYDTSKLASGVPSRFSGSGSGTDFTLTISSLQPEDVATYYCQQWNSHPLTFGQGTKLEIK | –
4 | 8.2 | 0.27 | 0.27 | 339-38 (antibody, human IgG1, V domains shown) VH: QVQLVQSGAEVKKPGASVKVSCKASGYTFNEYTMHWVKQSHGQRLEWMGGINPNSGGVSYNQNFKGKATLTVDTSASTAYMELSSLRSEDTAVYYCARGGDGYYTNYFDIDYWGQGTTVTVSS VL: EIVLTQSPDFQSVTPKEKVTITCSASSSVNYMHWYQQKPDQSPKLLIKDTSKLASGVPSRFSGSGSGTDFTLTINSLEAEDAATYYCQQWNSHPLTFGQGTKLEIK | Kd (human IL-17A homodimer [8]): 1 nM; koff (human IL-17A homodimer [8]): 0.005 s⁻¹; kon (human IL-17A homodimer [8]): 4e+06 M⁻¹ s⁻¹; Kd [9]: 0.4 nM; koff [9]: 0.0004 s⁻¹; kon [9]: 1e+06 M⁻¹ s⁻¹; Kd (human IL-17F homodimer [10]): 0.3 nM; koff (human IL-17F homodimer [10]): 0.0006 s⁻¹; kon (human IL-17F homodimer [10]): 2e+06 M⁻¹ s⁻¹
5 | > 600 | 20 | 3.5 | 339-37 (antibody, human IgG1, V domains shown) VH: QVQLVQSGAEVKKPGASVKVSCKASGYTFTEYTMHWVRQAPGQRLEWMGGINPNSGGVSYNQNFKGRVTITRDTSSSTAYMELSSLRSEDTAVFYCARGGDGYYTNYFDIDYWGQGTTVTVSS VL: EIVLTQSPDFQSVTPKEKVTITCSASSSVNYMHWYQQKPDQSPKLLIKDTSKLASGVPSRFSGSGSGTDFTLTINSLEAEDAATYYCQQWNSHPLTFGQGTKLEIK | –

Second part, the binder before the results:

Row | Binder | IC50, NIH/3T3/KZ170 NF-kB luciferase reporter (human IL-17A homodimer [5]) [nM] | IC50, NIH/3T3/KZ170 NF-kB luciferase reporter [6] [nM] | IC50, NIH/3T3/KZ170 NF-kB luciferase reporter (human IL-17F homodimer [7]) [nM] | other results
6 | human IL-23 (IL-23p19/IL-12B heterodimer) (ligand) chain 1: RAVPGGSSPAWTQCQQLSQKLCTLAWSAHPLVGHMDLREEGDEETTNDVPHIQCGDGCDPQGLRDNSQFCLQRIHQGLIFYEKLLGSDIFTGEPSLLPDSPVGQLHASLLGLSQLLQPEGHHWETQQIPSLSPSQPWQRLLLRFKILRSLQAFVAVAARVFAHGAATLSP chain 2: IWELKKDVYVVELDWYPDAPGEMVVLTCDTPEEDGITWTLDQSSEVLGSGKTLTIQVKEFGDAGQYTCHKGGEVLSHSLLLLHKKEDGIWSTDILKDQKEPKNKTFLRCEAKNYSGRFTCWWLTTISTDLTFSVKSSRGSSDPQGVTCGAATLSAERVRGDNKEYEYSVECQEDSACPAAEESLPIEVMVDAVHKLKYENYTSSFFIRDIIKPDPPKNLQLKPLKNSRQVEVSWEYPDTWSTPHSYFSLTFCVQVQGKSKREKKDRVFTDKTSATVICRKNASISVRAQDRYYSSSWSEWASVPCS | – | – | – | EC50, STAT3 phosphorylation in Baf3/huIL-23Ra/huIL-12Rb1 transfectants [1]: 0.02 nM
7 | 339-33 (antibody, human IgG1, V domains shown) VH: QVQLVQSGAEVKKPGASVKVSCKASGYTFTEYTMHWVRQAPGQRLEWMGGINPNSGGVSYNQNFKGRVTITRDTSASTAYMELSSLRSEDTAVYYCARGGDGYYTNYFDIDYWGQGTTVTVSS VL: EIVLTQSPDFQSVTPKEKVTITCSASSSVNYMHWYQQKPDQSPKLLIKDTSKLASGVPSRFSGSGSGTDFTLTINSLEAEDAATYYCQQWNSHPLTFGQGTKLEIK | – | – | – | IC50, NIH/3T3/KZ170 NF-kB luciferase reporter (human IL-17A homodimer [2]): > 600 nM; IC50, NIH/3T3/KZ170 NF-kB luciferase reporter [3]: 9.7 nM; IC50, NIH/3T3/KZ170 NF-kB luciferase reporter (human IL-17F homodimer [4]): 1.7 nM
8 | 339-127 (antibody, human IgG1, V domains shown) VH: QVQLVQSGAEVKKPGASVKVSCKASGYTFNEYTMHWVKQSHGQRLEWMGGINPNSGGVSYNQNFKGRVTITRDTSASTAYMELSSLRSEDTAVYYCARGGDGYYTNYFDIDYWGQGTTVTVSS VL: DIQMTQSPSSLSASVGDRVTITCSASSSVNYMHWYQQKPGKVPKLLIYDTSKLASGVPSRFSGSGSGTDFTLTISSLQPEDVATYYCQQWNSHPLTFGQGTKLEIK | 190 | 3.4 | 0.5 | –
9 | 339-128 (antibody, human IgG1, V domains shown) VH: QVQLVQSGAEVKKPGASVKVSCKASGYTFTEYTMHWVRQAPGQRLEWMGGINPNSGGVSYNQNFKGKATLTVDTSASTAYMELSSLRSEDTAVYYCARGGDGYYTNYFDIDYWGQGTTVTVSS VL: DIQMTQSPSSLSASVGDRVTITCSASSSVNYMHWYQQKPGKVPKLLIYDTSKLASGVPSRFSGSGSGTDFTLTISSLQPEDVATYYCQQWNSHPLTFGQGTKLEIK | 5.1 | 0.41 | 0.25 | –
10 | 339-39 (antibody, human IgG1, V domains shown) VH: QVQLVQSGAEVKKPGASVKVSCKASGYTFNEYTMHWVKQSHGQRLEWMGGINPNSGGVSYNQNFKGKATLTVDTSSSTAYMELSSLRSEDTAVFYCARGGDGYYTNYFDIDYWGQGTTVTVSS VL: EIVLTQSPDFQSVTPKEKVTITCSASSSVNYMHWYQQKPDQSPKLLIKDTSKLASGVPSRFSGSGSGTDFTLTINSLEAEDAATYYCQQWNSHPLTFGQGTKLEIK | 7.6 | 0.23 | 0.25 | –
11 | 339-125 (antibody, human IgG1, V domains shown) VH: QVQLVQSGAEVKKPGASVKVSCKASGYTFNEYTMHWVKQSHGQRLEWMGGINPNSGGVSYNQNFKGKATLTVDTSASTAYMELSSLRSEDTAVYYCARGGDGYYTNYFDIDYWGQGTTVTVSS VL: DIQMTQSPSSLSASVGDRVTITCSASSSVNYMHWYQQKPGKVPKLLIYDTSKLASGVPSRFSGSGSGTDFTLTISSLQPEDVATYYCQQWNSHPLTFGQGTKLEIK | 1.5 | 0.81 | 0.83 | Kd (human IL-17A homodimer [8]): 1 nM; koff (human IL-17A homodimer [8]): 0.003 s⁻¹; kon (human IL-17A homodimer [8]): 2e+06 M⁻¹ s⁻¹; Kd [9]: 0.3 nM; koff [9]: 0.0006 s⁻¹; kon [9]: 2e+06 M⁻¹ s⁻¹; Kd (human IL-17F homodimer [10]): 0.1 nM; koff (human IL-17F homodimer [10]): 0.0002 s⁻¹; kon (human IL-17F homodimer [10]): 2e+06 M⁻¹ s⁻¹
12 | 339-126 (antibody, human IgG1, V domains shown) VH: QVQLVQSGAEVKKPGASVKVSCKASGYTFTEYTMHWVRQAPGQRLEWMGGINPNSGGVSYNQNFKGRVTITRDTSASTAYMELSSLRSEDTAVYYCARGGDGYYTNYFDIDYWGQGTTVTVSS VL: DIQMTQSPSSLSASVGDRVTITCSASSSVNYMHWYQQKPGKVPKLLIYDTSKLASGVPSRFSGSGSGTDFTLTISSLQPEDVATYYCQQWNSHPLTFGQGTKLEIK | – | – | – | IC50, NIH/3T3/KZ170 NF-kB luciferase reporter (human IL-17A homodimer [2]): > 600 nM; IC50, NIH/3T3/KZ170 NF-kB luciferase reporter [3]: 24 nM; IC50, NIH/3T3/KZ170 NF-kB luciferase reporter (human IL-17F homodimer [4]): 1.6 nM
13 | 339-35 (antibody, human IgG1, V domains shown) VH: QVQLVQSGAEVKKPGASVKVSCKASGYTFNEYTMHWVKQSHGQRLEWMGGINPNSGGVSYNQNFKGRVTITRDTSASTAYMELSSLRSEDTAVYYCARGGDGYYTNYFDIDYWGQGTTVTVSS VL: EIVLTQSPDFQSVTPKEKVTITCSASSSVNYMHWYQQKPDQSPKLLIKDTSKLASGVPSRFSGSGSGTDFTLTINSLEAEDAATYYCQQWNSHPLTFGQGTKLEIK | > 600 | 2.4 | 0.64 | –
